Test results: article doi:10.64898/2025.12.02.691773

Molecular target: DH-CRBN (human) (UniProt Q96SW2)
Test: split reporter
Design: unit not given beside the values

| AUC of the growth curve with pomalidomide | AUC of the growth curve without compound (DMSO) | Substance |
| --- | --- | --- |
| 5130 | 3220 | CHD8 full domain (FD) (from UniProt Q9HCK8 1-2581) (domain or fragment) |
| 2800 | 1780 | SPART FD (from UniProt Q8N0X7 1-666) (domain or fragment) |
